Common to all, as to experiment: SPR
What all share (conditions): both partners purified

For test [1], the target named is T1, Q769 UFO (subtype A Env of Q769_d22) (HIV-1 Q769_d22 (subtype A), UniProt Q8JDJ1, stabilised).
T1 construct: source: FreeStyle 293F, transient transfection (PEI), purified (GNL resin, SEC)

Test [2] addresses T2, X18 UFO (CRF01_AE Env), wild type, for SPR (HIV-1 BJOX018000.e12 (X18, CRF01_AE), stabilised).
T2 construct: source: FreeStyle 293F, transient transfection (PEI), purified (GNL resin, SEC)

Test [3] deals with T3, X18 SOSIP-His (CRF01_AE Env trimer in SOSIP design) (HIV-1 BJOX018000.e12 (X18, CRF01_AE), UniProt A0A0E3EAY4, stabilised).
T3 construct: copies: 3 + 3

Test [4] deals with T4, X16 SOSIP-His (CRF07_BC Env trimer in SOSIP design) (HIV-1 BJOX016000.e15 (X16, CRF07_BC), UniProt A0A0E3EAD6, stabilised).
T4 construct: copies: 3 + 3

Test [5] addresses T5, BG505 SOSIP-His (subtype A Env trimer) (HIV-1 BG505 (subtype A), UniProt Q2N0S6, stabilised).
T5 construct: copies: 3 + 3

B1: bNAb F6 Fab (for SPR) (Fab, V domains shown)
VH: QVQLQQWGTGLLKPSETLSLTCAVYGVSLRGYYWTWIRQSPKKGLEWIGEIDEIGRTKYSQSLRSRATLSIDTSKKQFSLRLTSVTAADMATYYCARWRLMMVDEVTRHGMDVWSQGTMVTVSS
VL: DIVMTQSPLSLSVAPGEAASISCRSTQSLLNRNGDNYLEWYLRRPGRSPQLLIYLGSERALGVPDRFSGSGSGRDFTLKISRVEAQDVGTYYCLQTRQGAFTFGQGTKLEIK
As for B1, the binding result in test [1] is reported as “binds”. The Kd (as a rule, the concentration at which binding is half-saturated) in test [2] is 0.041 nM.

B2: bNAb 8ANC195 Fab (for SPR) (Fab, V domains shown)
VH: QIHLVQSGTEVKKPGSSVTVSCKAYGVNTFGLYAVNWVRQAPGQSLEYIGQIWRWKSSASHHFRGRVLISAVDLTGSSPPISSLEIKDLTSDDTAVYFCTTTSTYDKWSGLHHDGVMAFSSWGQGTLISVSA
VL: DIQMTQSPSTLSASIGDTVRISCRASQSITGNWVAWYQQRPGKAPRLLIYRGAALLGGVPSRFSGSAAGTDFTLTIGNLQAEDFGTFYCQQYDTYPGTFGQGTKVEVK
For the molecule B2, the binding result in test [3], in test [4] and in test [5] was “binds” in each case.

For the origin of these results see publication PMC10403546 (Nature Communications, 2023).
